From article PMC8693174 come the findings set out here.

What all share (assay): potentiometry
Holding throughout (details): 25 °C; I = 0.1 M (KNO3); samples in 96 mM KNO3/4 mM HNO3; none (96 mM KNO3/4 mM HNO3); Free peptide, no metal, under argon

Data set [1] deals with Asp3 (position 3, ---RHDSG---).
Data set [2] addresses His2 (position 2, ----RHDSG--).
Data set [3] deals with Nterm1 (position 1, -----RHDSG-).

B1: Amyloid-beta 5-9 peptide (Abeta5-9), Arg-His-Asp-Ser-Gly-NH2 (Homo sapiens (synthetic peptide)) (peptide)
chain: RHDSG
As to B1, the pKa in data set [1] came to 3.17; in data set [2], 6.13; in data set [3], 7.37.

As a reminder, the pKa is the pH at which an ionisable group is half protonated. A low value points to a group that gives up its proton readily.
